The values below come from PMC5181381.

For test [1], the target named is non-lipidated Gβ1γ2 dimer (UniProt P62873). Nature of the test: SEC; purified mini-Gs399 mixed with non-lipidated Gβ1γ2 dimer in an equimolar ratio, on ice 4 h; Superdex-200 10/300; 10 mM HEPES pH 7.5, 100 mM NaCl, 1 mM MgCl2, 1 μM GDP, 0.1 mM TCEP. Background: SEC sorts molecules by how far they enter the pores of the column.
Test [2] has as its target minimally thermostabilised turkey β1AR construct β1AR-84 (turkey) (UniProt P07700).
The target of test [3] is truncated form of turkey β1-adrenergic receptor, β1AR^∆NC (turkey) (UniProt P07700).
Test [4] shares this target. This is another data set of the same source.
Test [5] has the same target. Briefly: SEC; purified β1AR^∆NC in LMNG mixed with a 1.2-fold molar excess of mini-Gs393, on ice 4 h; Superdex-200 10/300; 10 mM HEPES pH 7.5, 100 mM NaCl, 1 mM MgCl2, 1 μM ascorbic acid, 1 μM isoprenaline, 0.002% LMNG; peak fractions analysed by SDS-PAGE.

Regarding mini-Gs399 (domain or fragment), the stoichiometry N – broadly, a count of units in the complex or per binding partner – in test [1] was 1.

Consider “soluble heterotrimeric Gs in the presence of the nanobody Nb35 (from UniProt P63092 1-394; P62873 1-340; P59768 1-71) (complex)”, for which the fold increase of the isoprenaline affinity of membrane-embedded β1AR-84 (competition with 3H-DHA, 25 μM binding partner, 20°C) in test [2] came out at 162 fold. In addition, the fold shift of the isoprenaline affinity of membrane-embedded β1AR^∆NC (competition with 3H-DHA, 25 μM binding partner, 20°C) in test [3] was 6 fold. The Apparent Tm of β1AR^∆NC in DDM, measured by ^3H-NE binding (°C) in test [4] is 35.8 °C.

For the substance “Mini-Gs393 (final mini-Gs construct) (domain or fragment)”, the Apparent Tm of β1AR^∆NC in DDM, measured by ^3H-NE binding (°C) in test [4] was 34.1 °C. This substance also gave a stoichiometry N in test [5] of 1.
